Among the data in article PMC7712654 (2020) are Kd values, retold here.

The labels stand for the following.
B1: α-CT coiled-coil domain fused with HIS tag (α-CT-His), fluorescently labeled (domain or fragment)
chain: INMKKREAVFSDSRKLQGEVDKLKEQILKAKETSTEAEPSSEVLNEMIEKLKSEIDDEYTEAAIAVGLEERLTAMREEFSKASSEEHLMHPVLIEKIEKLKEEFNTRLTDAPNYESLKSKLNMLRDFSRAKAASEATSLKKEINKRFQEAVDRPEIREKVEAIKAEVASSGASSFDELPDALKEKVLKTKGEVEAEMAGVLKSMGLELDAVKQNQKDTAEQIYAANENLQEKLEKLNQEITSKIEEVVRTPEIKSMVELLKVETAKASKTPGVTEAYQKIEALEQQIKQKIAEALNTSGLQEKQDELEKELAAARELAAEESDGSVKEDDDDDEDSSESGKSEMVNPSFA
modifications: fluorescently labeled using His-tag labeling kit (NanoTemper, MO-L008)
B2: coiled-coil domain of CTI1 fused with HIS tag (domain or fragment)
chain: PQISKAIAGADRKDLMRKLPKFIYDEEKALEKTRKVLAEKIAQLNSAIDDVSSQLKSEDTPNGAALSTDEIEATA

Experiment [1] has as its target coiled-coil domain of CTI3 fused with HIS tag (Arabidopsis thaliana). Put plainly: MST.
Experiment [2] has as its target B1. Put plainly: MST.

Broadly, the Kd is a measure of binding affinity in units of concentration. A higher Kd goes with weaker binding. Molecule B1 showed a Kd in experiment [1] of 114 nM. In experiment [2], B2 showed a Kd of 14.8 nM.
